{
  "source": "paper PMC4404995",
  "substrate": "CC(=O)c1ccc(O[C@@H]2O[C@H](CO)[C@@H](O)[C@H](O)[C@H]2O)cc1",
  "experiment": "LC-MS assay of aglycon release",
  "assay_type": "biochemical, Picea glauca",
  "settings": "0.01–2.0 mM picein, 20 mM MES-KOH, pH 6, 37°C, 1 h",
  "data": [
    {"protein": "PgβGLU-1 (Picea glauca) (protein) TSPDLGRSSFPKGFKFGAGSSAYQDEGAALEGGKGPSIWDTFSHIQGKIEDGKNGDVAVDQYHRYKEDVRHLKYMGMDLYRFSISWSRIFPQGSPRHGGVNEEGITYYNNLINELLKNGMEPFVTLYHWDMPQALEDEYGGFRSQRVVEDIGTFAEECFRAFGDRVKYWTTINEPLTFTLYGYDLGIHAPGRCSPGFGNCTAGNSATEPYIVTHNMLLAHSAAVKTYRTKYQGKQKGSIGISLVVNWMVPYSNSLLDQEATQRAIDFRIGWFLDPLTSGKYPDSMRSLVGARLPRFSSEEAKDLKGSFDFLGYNYYQTYFTVNNPTPQNSLNTDYVLDAQANISQQVNGVYVGSSEGVSSFRSYPAGLREVINYTKHRYSNPPIYITETGYGDFDNGTTPLEEALQDSGRVEYYSKHLSSLLEAIREGADVRGYVVWSFLDGFEWASGYDYRFGLYYVDYNDNLKRYPRESANWFRNVLKS", "values": [
      {"measurement": "Km", "result": "1280 ± 530", "unit": "µM"}
    ]}
  ]
}
